According to the nanobody polyreactivity screen of Harvey et al. (2022):

Test: yeast display, Sf9 membrane polyspecificity reagent, FACS + sequencing; frameworks hold sequencing errors
Method in brief: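 Nanobodies came from a synthetic yeast display library in Saccharomyces cerevisiae BJ5465, induced with galactose for 36–48 hours and stained for 1 hour at 4 °C with 10% biotinylated, detergent-solubilized Sf9 membrane reagent. Cells were enriched on streptavidin microbeads and then FACS-sorted, with low and high (top ~1%) gates set on anti-HA fluorescence for expression and streptavidin fluorescence for reagent binding. Each polyreactivity label reflects the gate a clone came from. Genes were amplified by colony PCR, sequenced by MiSeq 2 × 250 and filtered by CDR length.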

Row | Sequence | polyreactivity (PSR sort gate)
1 | QVQLVESGGGLVQAGGSLRLSCAASGSTFSVYAMGWYRQAPGKERELVAAISTSGGSTYYADSVKGRFTISRDNAKNTVYLQMNSLKTEDTAVYYCNAEYSGYIYPYSYPIYYWYDYWGQGTQVTVSS | high polyreactivity
2 | QVQLVESGGGLVQAGGSLRLSCAASGSTFSVYAMGWYRQAPGKERELVAAISWSGGSTYYADSVKGRFTISRDNAKNTVYLQMNSLKPEDTAVYYCNATVTYYRYYAYVRRYYWGQGTQVTVSS | high polyreactivity
3 | QVQLVESGGGLVQAGGSLRLSCAASGSTFSWYAMGWYRQAPGKERELVAAISYSGGTYYADSVKGRFTISRDNAKNTVYLQMNSLKPEDTAVYYCAALRTRYGYDYWGQGTQVTVSS | high polyreactivity
4 | QVQLVESGGGLVQAGGSLRLSCAASGSTFSWYVMGWYRQAPGKERELVAAITRGGGSTYYADSVKGRFTISRDNAKNTVYLQMNSLKPEDAAVYYCNADPGFRSGDYGYSSFDYWGQGTQVTVSS | low polyreactivity
5 | QVQLVESGGGLVQAGGSLRLSCAASGSTFSYAMGWYRQAPGKERELVAAITIGGRTSYADSVKGRFTISRDNAKNTVYLQMNSLNPEDTAVYYCAADDLPGMDYWGQGSQVTVSS | low polyreactivity
6 | QVQLVESGGGLVQAGGSLRLSCAASGSTFSYMGWYRQAPGKERELVAAISYRGGRTYYADSVKGRFTISRDNAKNTVYLQMNSLTPEDTAVYYCNADGGRTYYSRYDYWGQGTQVTVSS | low polyreactivity
7 | QVQLVESGGGLVQAGGSLRLSCAASGSTFSYNAMGWYRQAPGKERELVAAIDRSVSTNYADSVKGRFTISRDNAKNTVYLQMNSLKPEDTAVYYCNARHPTDDIVIYDYWGQGTQVTVSS | low polyreactivity
8 | QVQLVESGGGLVQAGGSLRLSCAASGSTFSYNAMGWYRQAPGKERELVAAISRGGITNYADSVKGRFTISRDNAKNTVYLQMNSLKPEDTAVYYCNAGYLGGPSYEYWGQGTLVTVSS | low polyreactivity
9 | QVQLVESGGGLVQAGGSLRLSCAASGSTFSYNAMGWYRQAPGKERELVAAITSSGSSTYYADSVKGRFTISRYNAKNTVYLQMNSMKPEDTAVYYCNAEVLFVAGQVQRNSGDYWGQGTEVTVSS | low polyreactivity
10 | QVQLVESGGGLVQAGGSLRLSCAASGSTFSYSTMVWYRQPPGKERELVATISRRGASTYYADSVKGRFTISRDNAKNTVYLQMNSLKPEDTAVYYCAKSYYYGRSATRPEYDYWGQGTQVTVSS | high polyreactivity
11 | QVQLVESGGGLVQAGGSLRLSCAASGSTFSYYAMGWYRQAPGKEWEFVAAISRSGGRTYYADSVKGRFTISRDNAKNTVYLQMNSLKPEDTAVYYCATVYYYDFSRTHPWPGDYWGQGTQVTVSS | high polyreactivity
12 | QVQLVESGGGLVQAGGSLRLSCAASGSTFSYYNMGLYIQATGKERELLAAINRRGDSTYADSVKWRFTISRDNAKNTVYLQMNSLKPEDTAVYDCAADASVGVSGMDYWGQGTQVTVSS | low polyreactivity
13 | QVQLVESGGGLVQAGGSLRLSCAASGSTFSYYVMGWYRPAPGKERELVAAISGSGGSTYYADSVKGRFTISRDNAKNTVYLQMNSLKPEDTAVYYCDANDGSEYDYWGQGTQVTVSS | high polyreactivity
14 | QVQLVESGGGLVQAGGSLRLSCAASGSTFSYYVMGWYRQAPGKERELVAAISGSGGSTYYSDSVKGRFTISRDNAKNTVYLQMNSLKPEDTAVYYCAANDGSEYDYWGQGTQVTVSS | high polyreactivity
15 | QVQLVESGGGLVQAGGSLRLSCAASGSTFTAYAMGWYRQAPGKERELVAAISKRSGGTYYADSVKGRFTISRDNAKNTVYLQMNSLKPEVTAVYYCGQGTQVTVSS | low polyreactivity
16 | QVQLVESGGGLVQAGGSLRLSCAASGSTFTAYAMGWYRQAPGKERELVAAITSSGGGTYYADSVKGRFTISRDNAKNPVYLQMNSLKPEDTAVYYCAAVPGYGYYNYSDFDYWGQGTQVTVSS | low polyreactivity

Row | Sequence | polyreactivity (PSR sort gate)
17 | QVQLVESGGGLVQAGGSLRLSCAASGSTFTDNAMGWYRQAPGKERELVAAITSGSSTNYADSVKGRFTISRDNAKNTVYLQMNSLKPEDTAVYYCATCQEPQYSTGDYWGQGTQVTVSS | low polyreactivity
18 | QVQLVESGGGLVQAGGSLRLSCAASGSTFTDYAMGWYRQAPGKERELVAAITDSGGRTYYADSVKGRFTISRDNAKNTVYLQMNSLKPEDTAVYYCATEDDRWYYWGQGTQVTVSS | high polyreactivity
19 | QVQLVESGGGLVQAGGSLRLSCAASGSTFTDYDMGWYRQAPGKERELVAAITSGGSTNYADSVKGRFTISRDNAKNTVYLQMNSLKPEDTAVYYCAAADADRKYDYWGQGTQVTVSS | low polyreactivity
20 | QVQLVESGGGLVQAGGSLRLSCAASGSTFTFNAMGWSRQAPGKDRELVAAIRWSTGGTYYADSVKGRFTISRDNAKNTVYLQMNSLKPEDTAVYNCAAQFVPYFYFSKYDYWGQGTQVTVSS | low polyreactivity
21 | QVQLVESGGGLVQAGGSLRLSCAASGSTFTGNAMAWYRQAPGKERELVAAISRSGGSTFYADYVKGRFTISRDNAKNTVYLQMNSLKPEDTAVYYCATRYVVDMDYWGQGTQVTVSS | high polyreactivity
22 | QVQLVESGGGLVQAGGSLRLSCAASGSTFTGYAMGWSRQAPGKEREIVATITKRGGRTYYADSVKGRFTISRDNAKNTVYLQMNSLKPEDTAVYYCARDQGKLVVPYAYWGQGTQVTVSS | high polyreactivity
23 | QVQLVESGGGLVQAGGSLRLSCAASGSTFTGYAMGWYRQAPGKERELVAAISRSGGSTSYADSVKGRFTISRDNAKNTVYLQMNSLKPEDTAVYYCAAQVQGTTRAKQRGGIGELDYWGQGTQLTVSS | low polyreactivity
24 | QVQLVESGGGLVQAGGSLRLSCAASGSTFTGYAMGWYRQAPGKERELVAAISRSVGRTYYADSVKGRFTISRDNAKNTVYLQMNSLKPEDTAVYYCAADVYLTGSRNYYWGQGTQVTVSS | high polyreactivity
25 | QVQLVESGGGLVQAGGSLRLSCAASGSTFTGYAMGWYRQAPGKERELVAAITRGGSTYYADSVKGRFTISRDNAKNTVYLQMNSLKPEDTAVYYCAAKPSSREPTGPRYYYWGQGTQVTVSS | high polyreactivity
26 | QVQLVESGGGLVQAGGSLRLSCAASGSTFTGYTMGWYRQAPGKERELVAAITYRGGSTYYADSVKGRFTISRDNAKITDYLQMNSLIPEDTAVYYCAAVPEYYEYSPYDYWGQGTQVTVSS | low polyreactivity
27 | QVQLVESGGGLVQAGGSLRLSCAASGSTFTGYTMGWYRQAPGKERELVAAITYRGGSTYYADSVKGRFTISRDNAKNTVYLQMNSLKPEDSAVYYCAAVAVYYEYSPYDYWGQGTQLTVSS | low polyreactivity
28 | QVQLVESGGGLVQAGGSLRLSCAASGSTFTHYAMGWYRQAPGKERELVAAISWGGGTTRYADSVKGRFTISRDNAKNTVYLQMNSLKPEDTAVYYCAAYRTHGPPRAIRFDYWGQGTQVTVSS | high polyreactivity
29 | QVQLVESGGGLVQAGGSLRLSCAASGSTFTIYAMGGYRQAPGKERELVAAITRGGSTNYADSVKGRFTISRDNAKNTVYLQMNSLKPEDTAVYYCNKVVPGYSAAKYDYWGQGTQVTVSS | high polyreactivity
30 | QVQLVESGGGLVQAGGSLRLSCAASGSTFTIYAMGWYRQAPGKERELVAAITFSGDRTYYADSVKGRFTISRDNAKNTVFLQMNSLKPEDTAVYYCAAKSSTKQRKYYWGQGTQVTVSS | high polyreactivity
31 | QVQLVESGGGLVQAGGSLRLSCAASGSTFTKNAMGWYRQAPGKERELVAAISFSGGSTYYADSVKGRFTISRDNAKNTVYLQMNSLKPEHTAVYYCAADPHRALPRFDYWGQGTQVTVSS | low polyreactivity
32 | QVQLVESGGGLVQAGGSLRLSCAASGSTFTKNAMGWYRQAPGKERELVVVINRSGTSTYYADSVKGRFTISRDNAKNTVYLQMNSLKPEDTAVYYCATKYARTAGGGYYWGQGTQVTVSS | high polyreactivity
